From the supplement of paper PMC10567573

B1: FUT8 (parent)
chain: YPSYKVREKIETVKYPTYPEAEK
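Further: lentivirally expressed fusions sorted by FACS into six bins by GFP to DsRed ratio, PSI derived from sequencing read proportions per bin multiplied by bin number.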

Variants of: B1
Test: protein stability index of a GFP-peptide fusion (GPS, HEK-293T) (PSI 1-6); higher = more stable
Settings: c terminus: native
With YPSYKTREKIETVKYPTYPEAEK the protein stability index was 4.25. In the case of YPSYKYREKIETVKYPTYPEAEK, the protein stability index is reported as 4.15. For YPSYKSREKIETVKYPTYPEAEK, the protein stability index was 4.48. With YPSYKVREKIYTVKYPTYPEAEK the protein stability index was 3.44. For YPSYKVREKILTVKYPTYPEAEK, the protein stability index was 4.01. In the case of YPSYKVREKISTVKYPTYPEAEK, the protein stability index is reported as 4.07. YPSYKVREKIHTVKYPTYPEAEK gave a protein stability index of 3.8. In the case of YPSYKVREKIKTVKYPTYPEAEK, the protein stability index is reported as 4.32. In the case of YPSYKVREKICTVKYPTYPEAEK, the protein stability index is reported as 3.91. In the case of YPSYKVREKIQTVKYPTYPEAEK, the protein stability index is reported as 4.27. YPSYKVREKITTVKYPTYPEAEK showed a protein stability index of 3.5. YPSYKVREKINTVKYPTYPEAEK showed a protein stability index of 3.1. In the case of YPSYKVREKIMTVKYPTYPEAEK, the protein stability index is reported as 3.46. In the case of YPSYKVREKIFTVKYPTYPEAEK, the protein stability index is reported as 3.15. Variant YPSYKVREKIGTVKYPTYPEAEK has a protein stability index of 3.59. Work on YPSYKVREKIVTVKYPTYPEAEK yielded a protein stability index of 3.59. YPSYKVREKIITVKYPTYPEAEK showed a protein stability index of 3.34. Work on YPSYKVREKIPTVKYPTYPEAEK yielded a protein stability index of 4.12. YPSYKVREKIATVKYPTYPEAEK showed a protein stability index of 4.3. Variant YPSYKVRESIETVKYPTYPEAEK has a protein stability index of 4.28. YPSYKVREYIETVKYPTYPEAEK showed a protein stability index of 2.56. YPSYKVREQIETVKYPTYPEAEK gave a protein stability index of 4.25. YPSYKVRENIETVKYPTYPEAEK showed a protein stability index of 4.38. In the case of YPSYKVRECIETVKYPTYPEAEK, the protein stability index is reported as 4.43. With YPSYKVREDIETVKYPTYPEAEK the protein stability index was 4.14. Variant YPSYKVRELIETVKYPTYPEAEK has a protein stability index of 2.91. YPSYKVREVIETVKYPTYPEAEK gave a protein stability index of 3.23. YPSYKVRERIETVKYPTYPEAEK gave a protein stability index of 3.98. In the case of YPSYKVREMIETVKYPTYPEAEK, the protein stability index is reported as 4.24. Variant YPSYKVREGIETVKYPTYPEAEK has a protein stability index of 4.12. Work on YPSYKVREFIETVKYPTYPEAEK yielded a protein stability index of 2.64. For YPSYKVREPIETVKYPTYPEAEK, the protein stability index was 4.74. YPSYKVRETIETVKYPTYPEAEK showed a protein stability index of 4.44. In the case of YPSYKVREAIETVKYPTYPEAEK, the protein stability index is reported as 4.31. With YPSYKVREIIETVKYPTYPEAEK the protein stability index was 3.1. In the case of YPSYKVREEIETVKYPTYPEAEK, the protein stability index is reported as 4.5. With YPSYKVREWIETVKYPTYPEAEK the protein stability index was 1.99. For YPSYKVREHIETVKYPTYPEAEK, the protein stability index was 3.62. In the case of YPSYKVREKIEAVKYPTYPEAEK, the protein stability index is reported as 3.92. YPSYKVREKIECVKYPTYPEAEK showed a protein stability index of 4.17. With YPSYKVREKIEDVKYPTYPEAEK the protein stability index was 4.57. In the case of YPSYKVPEKIETVKYPTYPEAEK, the protein stability index is reported as 4.67. With YPSYKVNEKIETVKYPTYPEAEK the protein stability index was 4.59. With YPSYKVHEKIETVKYPTYPEAEK the protein stability index was 3.84. In the case of YPSYKVIEKIETVKYPTYPEAEK, the protein stability index is reported as 3.73. With YPSYKVVEKIETVKYPTYPEAEK the protein stability index was 3.85. Work on YPSYKVKEKIETVKYPTYPEAEK yielded a protein stability index of 4.16. Variant YPSYKVSEKIETVKYPTYPEAEK has a protein stability index of 4.49. For YPSYKVCEKIETVKYPTYPEAEK, the protein stability index was 3.76. Variant YPSYKVLEKIETVKYPTYPEAEK has a protein stability index of 4.48. For YPSYKVYEKIETVKYPTYPEAEK, the protein stability index was 3.6. YPSYKVMEKIETVKYPTYPEAEK showed a protein stability index of 4.48. For YPSYKVAEKIETVKYPTYPEAEK, the protein stability index was 4.54. Variant YPSYKVGEKIETVKYPTYPEAEK has a protein stability index of 4.7. In the case of YPSYKVFEKIETVKYPTYPEAEK, the protein stability index is reported as 2.52. Work on YPSYKVTEKIETVKYPTYPEAEK yielded a protein stability index of 3.96. In the case of YPSYKVWEKIETVKYPTYPEAEK, the protein stability index is reported as 2.79. In the case of YPSYKVQEKIETVKYPTYPEAEK, the protein stability index is reported as 4.45. With YPSYKVEEKIETVKYPTYPEAEK the protein stability index was 4.7. Variant YPSYKVDEKIETVKYPTYPEAEK has a protein stability index of 4.67. With YPSYKVREKVETVKYPTYPEAEK the protein stability index was 4.46. With YPSYKVREKMETVKYPTYPEAEK the protein stability index was 4.35. With YPSYKVREKDETVKYPTYPEAEK the protein stability index was 4.71. Variant YPSYKVREKLETVKYPTYPEAEK has a protein stability index of 4.28. Work on YPSYKVREKRETVKYPTYPEAEK yielded a protein stability index of 4.56. Variant YPSYKVREKQETVKYPTYPEAEK has a protein stability index of 4.17. Work on YPSYKVREKHETVKYPTYPEAEK yielded a protein stability index of 4.27. YPSYKVREKEETVKYPTYPEAEK gave a protein stability index of 4.61. Work on YPSYKVREKTETVKYPTYPEAEK yielded a protein stability index of 4.97. YPSYKVREKCETVKYPTYPEAEK showed a protein stability index of 4.21. In the case of YPSYKVREKPETVKYPTYPEAEK, the protein stability index is reported as 4.09. In the case of YPSYKVREKFETVKYPTYPEAEK, the protein stability index is reported as 4.36. Work on YPSYKVREKSETVKYPTYPEAEK yielded a protein stability index of 4.46. In the case of YPSYKVREKKETVKYPTYPEAEK, the protein stability index is reported as 4.57. For YPSYKVREKWETVKYPTYPEAEK, the protein stability index was 2.87. In the case of YPSYKVREKAETVKYPTYPEAEK, the protein stability index is reported as 4.19. Variant YPSYKVREKNETVKYPTYPEAEK has a protein stability index of 4.87. YPSYKVREKYETVKYPTYPEAEK showed a protein stability index of 4.29. With YPSYKVRKKIETVKYPTYPEAEK the protein stability index was 3.59. Variant YPSYKVRDKIETVKYPTYPEAEK has a protein stability index of 4.26. Work on YPSYKVRGKIETVKYPTYPEAEK yielded a protein stability index of 3.92. With YPSYKVRWKIETVKYPTYPEAEK the protein stability index was 2.13. In the case of YPSYKVRYKIETVKYPTYPEAEK, the protein stability index is reported as 2.28. YPSYKVRHKIETVKYPTYPEAEK gave a protein stability index of 4.28. Variant YPSYKVRQKIETVKYPTYPEAEK has a protein stability index of 4.01. Variant YPSYKVRCKIETVKYPTYPEAEK has a protein stability index of 2.62. Variant YPSYKVRSKIETVKYPTYPEAEK has a protein stability index of 3.57. YPSYKVRRKIETVKYPTYPEAEK showed a protein stability index of 3.74. Variant YPSYKVRVKIETVKYPTYPEAEK has a protein stability index of 1.75. YPSYKVRAKIETVKYPTYPEAEK gave a protein stability index of 3.96. For YPSYKVRLKIETVKYPTYPEAEK, the protein stability index was 1.99. With YPSYKVRFKIETVKYPTYPEAEK the protein stability index was 2.02. In the case of YPSYKVRNKIETVKYPTYPEAEK, the protein stability index is reported as 4.27. For YPSYKVRIKIETVKYPTYPEAEK, the protein stability index was 2.62. YPSYKVRMKIETVKYPTYPEAEK showed a protein stability index of 2.69. Variant YPSYKVRTKIETVKYPTYPEAEK has a protein stability index of 3.43. YPSYKVRPKIETVKYPTYPEAEK gave a protein stability index of 3.72.
